Results published in patent publication US11413334B2, “Lysin polypeptides active against Gram-negative bacteria” (CONTRAFECT CORPORATION, priority 2015, dated 2022).
Entries after “also recorded” stand apart in the source; their conditions may differ.

Experiments:
PAO1 cells = experiment: Killing assay of GN4-derived peptides in Tris-HCl buffer; details: FIG. 6; compared with parent GN4 fragment
[1] = system: P. aeruginosa strain PAO1; experiment: Viability (CFU) assay of GN lysins in Tris-HCl buffer; details: for antibacterial activity compared with EDTA and PMB / antibacterial activity compared with HuLYS or novobiocin: lysin 25 mcg/ml, 1 hour, 37° C., 20 mM Tris-HCl pH 7.2, FIG. 4; for antibacterial activity compared with EDTA and PMB: EDTA 1 mM, PMB 25 mcg/ml; for antibacterial activity compared with HuLYS or novobiocin: HuLYZ 25 mcg/ml, novobiocin 5 mcg/ml
[2] = system: P. aeruginosa strain PAO1; type: cell-based, Pseudomonas aeruginosa; details: E. coli clones of five Micavibrio aeruginosavorus hydrolases screened

Row | Molecule | antibacterial activity compared with EDTA and PMB [1] | antibacterial activity compared with HuLYS or novobiocin [1] | also measured
1 | FGN4-4: FGN4-1 with a single C-terminal cysteine added (NKGDYQGAADQFPRWVNAGGKRLDGLVKRRAAERALFLEPLSC; artificially-created modified fragment of GN4 (SEQ ID NO 3)) | – | – | effect of the sequence modification on activity of the parent fragment (PAO1 cells): enhanced the activity of the FGN4-1
2 | FGN4-2: FGN4-1 with the 11 C-terminal residues removed, 31 amino acids (NKGDYQGAADQFPRWVNAGGKRLDGLVKRRA; Pseudomonas phage PAJU2) | – | – | effect of the sequence modification on activity of the parent fragment (PAO1 cells): did reduce activity
3 | GN4: 144 amino acid lysin polypeptide, putative endolysin of Pseudomonas phage PAJU2 (protein, Pseudomonas phage PAJU2) MRTSQRGIDLIKSFEGLRLSAYQDSVGVWTIGYGTTRGVTRYMTITVEQAERMLSNDIQRFEPELDRLAKVPLNQNQWDALMSFVYNLGAANLASSTLLKLLNKGDYQGAADQFPRWVNAGGKRLDGLVKRRAAERALFLEPLS | equivalent antibacterial activity; also recorded: stronger or equivalent antibacterial activity | greater antibacterial activity | –
4 | GN14: 189 amino acid lysin polypeptide, putative endolysin of Pseudomonas phage Lu11 (protein, Pseudomonas phage Lu11) MNNELPWVAEARKYIGLREDTSKTSHNPKLLAMLDRMGEFSNESRAWWHDDETPWCGLFVGYCLGVAGRYVVREWYRARAWEAPQLTKLDRPAYGALVTFTRSGGGHVGFIVGKDARGNLMVLGGNQSNAVSIAPFAVSRVTGYFWPSFWRNKTAVKSVPFEERYSLPLLKSNGELSTNEA | equivalent antibacterial activity; also recorded: stronger or equivalent antibacterial activity | greater antibacterial activity | –
5 | GN2: 147 amino acid lysin polypeptide, lysozyme class, from marine metagenome (protein, hypothetical protein GOS_817346 [marine metagenome] (GenBank EDG23390.1)) MKISLEGLSLIKKFEGCKLEAYKCSAGVWTIGYGHTAGVKEGDVCTQEEAEKLLRGDIFKFEEYVQDSVKVDLDQSQFDALVAWTFNLGPGNLRSSTMLKKLNNGEYESVPFEMRRWNKAGGKTLDGLIRRRQAESLLFESKEWHQV | – | greater antibacterial activity | –
6 | GN43: 439 amino acid lysin polypeptide, peptidase M23 of Pseudomonas (protein, listed as Pseudomonas sp.) MKRTTLNLELESNTDRLLQEKDDLLPQSVTNSSDEGTPFAQVEGASDDNTAEQDSDKPGASVADADTKPVDPEWKTITVASGDTLSTVFTKAGLSTSAMHDMLTSSKDAKRFTHLKVGQEVKLKLDPKGELQALRVKQSELETIGLDKTDKGYSFKREKAQIDLHTAYAHGRITSSLFVAGRNAGLPYNLVTSLSNIFGYDIDFALDLREGDEFDVIYEQHKVNGKQVATGNILAARFVNRGKTYTAVRYTNKQGNTSYYRADGSSMRKAFIRTPVDFARISSRFSLGRRHPILNKIRAHKGVDYAAPIGTPIKATGDGKILEAGRKGGYGNAVVIQHGQRYRTIYGHMSRFAKGIRAGTSVKQGQIIGYVGMTGLATGPHLHYEFQINGRHVDPLSAKLPMADPLGGADRKRFMAQTQPMIARMDQEKKTLLALNKQR | – | greater antibacterial activity | –
7 | GN37: 126 amino acid lysin polypeptide, peptidase M15 from Micavibrio aeruginosavorus (protein, listed as Micavibrio aeruginosavorus) MTYTLSKRSLDNLKGVHPDLVAVVHRAIQLTPVDFAVIEGLRSVSRQKELVAAGASKTMNSRHLTGHAVDLAAYVNGIRWDWPLYDAIAVAVKAAAKELGVAIVWGGDWTTFKDGPHFELDRSKYR | equivalent antibacterial activity; also recorded: stronger or equivalent antibacterial activity | greater antibacterial activity | decrease in bacterial viability ([1]; after only 1 hour of treatment): > 3 log; clearing zone on agar overlay plates [2]: yielded a clearing zone (halo)
